Experimental data reported in the nanobody polyreactivity screen of Harvey et al. (2022).

experiment: yeast display, Sf9 membrane polyspecificity reagent, FACS + sequencing; frameworks hold sequencing errors
In short: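 A synthetic nanobody library was expressed on Saccharomyces cerevisiae BJ5465 by galactose induction for 36–48 hours. The library was stained for 1 hour at 4 °C with 10% biotinylated, detergent-solubilized Sf9 membrane reagent and enriched with streptavidin microbeads before FACS. Low and high (top ~1%) gates were set on anti-HA fluorescence for expression and streptavidin fluorescence for reagent binding, and each polyreactivity label reflects the gate of origin.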

Row | Sequence | polyreactivity (PSR sort gate)
1 | QVQLVESGGGLVQAGGSLRLSCAASGSIFEGSVMGWSRQAPGKEREWVATISFSGGSTYYADSVKGRFTISRDNAKNTLYLQMNSLKPEDTAVYYCNALVYHTKGDYGYWGQGTQVTVSS | low polyreactivity
2 | QVQLVESGGGLVQAGGSLRLSCAASGRTFRTYTMGWYRQAPGKEREFVAAITSSGASTYYADSVKGRFTISRDNAKNTVYLQKNSLKPEDTAFYYCAARYGRRLVWVPALLYDYWGQGTQVTVSS | high polyreactivity
3 | QVQLVESGVVLVEAGGSLRLSCAASGRILSVYAMGWYRQAPRKERELVAAIRRGVGSTYYADSVKGRFTISRDNAKNTVYLQMNSLKPEDTADYYCAPYSYHNRIRYDSWGQGTQVTVSS | high polyreactivity
4 | QVQLVESGGGLVQAGGSLRLSCAASGSIFGVYTMGWYRQAPGKERELVAAITRSGGSTYYADSVKGRFTISRDNAKNTVYLQMNSLKPEDTAVYYCAARRAYVWCSQGYAHFEYWGQGTQVTVSS | high polyreactivity
5 | QVQLVESGGGLVQAGGSLRLSCAASGSTSDINAMGWYRPAPGKERELVAVITFSGGTTNYADSVKGRFTISRDNAKNTVYLQMNSLKPEDTAVYYCNADTLTTTRRFNPYDYWGQGTQVTVSS | low polyreactivity
6 | QVQLVESGGGLVQAGGSLRLSCAASGSIFVRNAMGWYRQAPGKERELVAAITSDVNTYYADSVKGRFTISRDNGKNTVYLQMNSLKPEDTAVYYCAKGVTSQPNDPAPFPRYEYWGQGTQVTVSS | low polyreactivity
7 | QVKLVESGGGLVQAGCSLRISCAASGITFKNYAMGWYRQAHGKERELVAAIRSIAGRTNYADSVKGRFTISRDYANNTVYLKMNSLKPEDTAVYYFTAANRGQRSDYRGYYYWGQGTQVTVSS | high polyreactivity
8 | QVQLVESGGGLVQAGGSLRLSCAASGQIFHSYAMGWSRQAPGKERELVAAISRGGGSTYYADSVKGRFTISRDNAKNTVYLQMNSLKPEDTAVYYCARENLTRYDYWGQGTQVTVSS | high polyreactivity
9 | QVQLVESGGGLVQAGGSLRLSCAASGRIFLWYAMGWYRQAPGKERELVAAISRTGGSTYYADSVKGRFTISRDNAKNTVYLQMNSLKPEDTAVYFCAAYHSYKTSWPQSGYWGQGTQVTVSS | high polyreactivity
10 | QVQLVESGGGLVQAGGSLRLSCAASGSTFDHYAMGWYRQAPGKERELVASITLSGGSTYYADSVKGRFTISRDNAKNTVYLQMNSLKPEDTAVYYCNVDYPFYQYGYYYNYNYWGQGTQVTVSS | low polyreactivity
11 | QVQLVESGGGLVQAGGSLRLSCAASGRIFEHYPMGWYRPAPGKERELVAAISRSGGRTYYADSVKGRFTISRDNAKNTVTLQMNSVKPEDTEVDYCAAVGVYWYVYPHEYDYWGQGSQVTVSS | high polyreactivity
12 | QVQLVESGGGLVQEGGSLRLSCAASGIIFDGNARGWYRQAPGKEKELVASITSDSSTNYADSVKGRFTISRDNAKNTVYLQMNSLKPEDTAVYYCAAAHWIAPRSDYWGQGTQVTLSS | low polyreactivity
13 | QVQLVESGGGLVQAGGSLRLSCAPSGRIFRYNAMGWYRQAPGKERELVAAITSGGSTNYADSVKGRFTISRDNAKNTVYLQMNRLKPEDTAVYYCAVTGYRPYAYRRRYPYDYWGQGTQVTVSS | high polyreactivity
14 | QVQLVESGGGLVQAGGSLRLSCAASGRTFSVNAMGWSRQAPGKERELVAAITYSGGGTYYADSVKGRFTISRDNAKNPVYLQMNSLKPEDTAVYYCAAPVYTWYHRYDYWGQGTQVTVSS | high polyreactivity
15 | QVQLVESGGGLVQAGGSLRLSCAASGIIFVRYAMGWYRQAPGKERELVAAITWRGSTYYADSVKGRFTISRDNAKNTVYLQMNSLKPEDTAVYYCAAVKPHYTSFRDYYCGQGTQVTVSS | high polyreactivity
16 | QVQHVESGGGLVQAGGSLRLSCAASGYIFPDYAMGWYRLAPGKEREMVAAITSSGGITYYADSVKGRFTISRDNAKNTVYLQMNCLKPEDSAVYYCAKGYPWRYSIMDYWGQGTQVTVSS | low polyreactivity
17 | QVQLVESGGGLVQAGGSLRLSCAASGLIFRPYAMGGYRQAPGKARELVAAITSGGSTDYADSLKGRFTISRDNAKNTVYLQMNSLNPEDTAVFYCNADFYPHDGYPWQGDYDYWGQGTQVTVSS | low polyreactivity
18 | QVQLVESGGGLVQAGGSLRLSCAASGSTLRRNAMGWYRPAPGKERELVAAISGTGGSTYYADSVKGRFTISRDNAKNTVYLQMNSLKPEDTAVYYCAATGWYYDYDYWGQGTQVTVSS | low polyreactivity
19 | QVQLVESGGGLVQAGGSLRLSCAASGFTFSYYAMGWYRQAPGKERELVAAISGSGGSTYYADSVKGRFTISRDNAKNTVYLQMNSLKPEDTAVYYCNARWRTRGHPEMYHWGQGTQVTVSS | high polyreactivity
20 | QVQLVESGGGLVQAGGSLRLICAASGSTLFYNAMGWYRQAPGKERELVAAISSGVRTNYADSVKGRFTISRDNAKITVYLQMNSLKPEDTALYYCAAATYNQDYSYDYWGQGTQVTVSS | low polyreactivity
21 | QVQLVEYGGGLVQAGGSLRLSCADSGRIFDVYAMGWYRQAPGKERELVARISDGGGSTYYADSVKGRFTISRDNAKNTVYLKMNSLKPEDTAVYYCAAGGDLRLDRRFAFVSRGDYWGQGTQVTVSS | low polyreactivity
22 | QFQLVESGGGLVQAGGSLRLSCAASRRTFTYYDMGWYRQAPGNEGELVSAISRRGGSTYYADSVKGRFTISRDNAKNTVYFQMNSLKPEDTAVYYCAAEVRLFSYTYSFFRYEYWGQGTHVTVSS | high polyreactivity

Row | Sequence | polyreactivity (PSR sort gate)
23 | QVQLVESGGGLVQAGGSLRLSCAASGSILDSNAMGWYRQAPGKERELVAAITSGGSTYYADSVKGRFTISRDNAMNSVYLQMNSLKPEDTAVYYCAAAYLGYGAVQPSYEGGYWGQGTQVTVSS | low polyreactivity
24 | QVQLVESGGGLVQAGGSLRLSCAASGSTFVIYDMGWYRQAPGKERELVAAISYSGGSTYYADSVKGRFTISRDNAKNTVYLQMNSLKPEDTAVYYCNAGVLVLLYAYLPSEQEYWGQGTQVTVSS | low polyreactivity
25 | QVQLVESGGGLVQAGGILRLSCAASGRTFYSNAMGWYRQAPGKARELVAAISRSGGRTYYADSVKGRFTISRDNAKISVYLQMNSLKTEDTAVYYCNKVRQNSSMDYWGQGTQVTVSS | high polyreactivity
26 | QVQLVESGGGLVQAGGSLRLSCAASGSTFYVNTMGGSRQAPGKERELVAAISGSGGSTYYADSVKGRFTISRDNAKNTVYLQMNCLKPEETAVYYCAAYGWRLWYRFNYWGQGTQVTVSS | high polyreactivity
27 | QLQLVESGRGLVQAGGSLRLSCAASGSIFYSNAKGWYRQATGKERELVATITWSGGRTYYADSVKGRFTISRDNGKNSVYLQMNRLKPEDTAVDYCAVVDRHQPYGRQLDYWGQGTQVTVSS | low polyreactivity
28 | QVQLVESGGGLVQAGGSLRLSCAASGSIFYTNAMGWYRQAPGKERELVAAITWSGGRTYYADSVKGRFTISRDIAKNTVYLQMNSLKPEDTAVYYCNREGWHYGPYGYWGQGTQVTVSS | low polyreactivity
29 | QVQLVESGGGLVQAGGSLRLSCAASGFIFQSYAMGWYRQAPGKERELVASISASGGSTYYADSVKGRFTISRDNAKNTVYLQMNSLKPEDTAVYYCAAGYWSYWSLRMDYWGQGTQVTVSS | high polyreactivity
30 | QVQLVESGGGLVQAGGSLRLICAASGSTFARYAMGWYRQAPGKERELVAVIRSGGSTNYADSVKGRFTISRDNAKNTVYLQMNSMKTEDTAGAADQWTIHRWATYGYWGQGTQVTVSS | low polyreactivity
31 | HVQLVESGGGLVQAGGSLRLSCAASGINFSWYPMGWYRQAPGKERELVAAISSSGGTTFYADSVKGRFTISRDKAKNTVYLQMNSLKPEDTAVYYCAVVGPPYYTWRVWRPAYDYWGQVTQVTVSS | high polyreactivity
32 | QVQLVESGGGLVQAGGSLRLICAASGSIFYEYAMGWYRQAPGKEREFVASISWSGGITSYADSVKGRFTISRDNAKNTVYLQMNSLKPEDTAVYYCAADFSWYLYDYDYWGQGTQVTVSS | low polyreactivity
33 | QVQLVESGGGLVQAGGSLRLSCAASGRTFYSYAMGWYRQAPGKERELVASISSSGASTYYADSVKGRFTISRDNAKNTVYLQMNSLKPEDTAVYYCNSVWRTSFITIYGFDYWGQGTQVTVSS | high polyreactivity
34 | QVQLVESGGGLVQAGGSLRLSCAASGFIFYFYAMGWYRQAPGKERELVAAISSGGSTNYADSVKGRFTISRDNAQNTVYIQMNSQKPEDTAVYYCNKSGYSKYFLNDYTYWGQGTQVTVSS | low polyreactivity
35 | QVQLVESGGGLVQAGGSLRISCAASARIFQVYGMGWYRQAPGKERELVASITYRGGSTYYADSVKGRFTISRDNAKNNVDLQMNSLKPEDTAVYYCAADGAFYASTEMDYWGQGTQVTVSS | low polyreactivity
36 | QVQLVESGGGLVQAGGSLRLSCAASGSTFKRNTMGWYRQAPGKERELVAAISRSGGYTYYADSVKGRFTISRDNAKNTVYLQMNSLNPEDTAVYYCNANVSSYVGSRSYGLSPYDYWGQGTQVTVSS | high polyreactivity
37 | QVQLVESGGGLVQAGGSLRLSRAASGFTFPAYTMGWYRQAPGKERELVAAITSSGGNTYYADSVKGRFTISRDNAKHTVYLQMNSLKPEDTAVYYCATVSVRWPSNDHVRYDYWGQGTQVTVSS | low polyreactivity
38 | QVQLVESGGGLVQAGGSLRLSCAASGSIFYLYAMGWYRPAPGKERELVAAISSGGSTYYADSVKGRFTISRDNAKNTVYLQMNSLKPEDTAVYYCNADSYYYPYDYWGQGTQVTVSS | low polyreactivity
39 | QVQLEESGGGLVQAGGSLRLSCAASGSTFEVYAMGWYRQAPGKERELVAVINVSDGSTYYADSVKGRFTISRDYAKNTVYLQMNSMKPEDTAVYYCADYLYNRPYQLTGYYDGYGYWGQGTQVTVSS | low polyreactivity
40 | QVQLVESCGGLVQAGGSLRLSCAASGSTFDGYAMGWYRQAPVKERELVAAISASGGSTYYADSVKGRFTISRDNAKNTVYLQMNSLKPEDTAVYYCNSEPFDLWAFYYCYVYGYYHWGQGTQVTVSS | high polyreactivity
41 | QVQLVESGGGLVQAGGSLRLSCAASGLTFYQYALGWSRQAPGNDREWVAAITRGGTTNYADSVKGRFTISRDNAKNTVYLQMNSLKPEDTAVYYCNKGLVFDGYDYWGQGTQVTVSS | high polyreactivity
42 | QVHLVESGGGLVQAGGSLRLSCAASGITLGYYVMGWYRQAPGKERELVAAISSSGGRTYYADSVKGRFTISRDNAKNTVYLQMNSLKPEDTAVYYCSADLGRGIYDYWGQGTQVTVSS | low polyreactivity
43 | QVQLVESGGGLVQAGGSLRLSCAASGFTFYGYGMGWYRQAPGKERELVAGISSGGGSTFYADSVKGRFTISRDNAKNTVYLQMNSLKPEDTAVYYCAALHYGGYFSYYPYYYWGQGTQVTVSS | low polyreactivity
